Article PMC6197226, “ZZ-dependent regulation of p62/SQSTM1 in autophagy” (Nature Communications, 2018)

Biological target: T1, p62 ZZ domain (aa 115-190) (human, UniProt Q13501 115-190)
T1 construct: p62/SQSTM1 ZZ domain, human, aa 115-190; uniformly 15N-labeled for NMR; unlabeled for MST; also called p62_(ZZ (115-190)); source: E. coli BL21 (DE3) RIL, purified (glutathione Sepharose, size exclusion)
Test: MST; displacement assay: unlabeled peptide added to a preformed complex of 40 uM ZZ (aa 115-190) and 80 nM FAM-labeled peptide; Ki from IC50, called Kd in the text; 10 mM HEPES pH 7.4, 150 mM NaCl, 1 mM TCEP; triplicates
Details: both partners purified

Kd: 320 µM
B1: K100EKKECRRDHR110 (p62_(100-110)) peptide (peptide)
peptide: KEKKECRRDHR
notes: p62/SQSTM1 regulatory linker between PB1 and ZZ, aa 100-110; also called RL peptide; RL; source: synthetic peptide (SynPeptide or KE BioChem)
